We go through two molecules from publication PMC6053351 (2017).

What all share (assay): ITC
(Isothermal titration calorimetry measures the heat released or taken up as one component is titrated into another.)

One assay concerns the target RBBP4 Glu231Ala (UniProt Q09028 1-425, Glu231Ala).
Assay [1] addresses RBBP4 Glu126Ala/Asn128Ala/Glu179Ala (UniProt Q09028 1-425, Glu126Ala | Asn128Ala | Glu179Ala).
The target in assay [2] is RBBP4, full-length, wild type (UniProt Q09028 1-425).
Sequence of RBBP4, full-length, wild type (Q09028 whole entry): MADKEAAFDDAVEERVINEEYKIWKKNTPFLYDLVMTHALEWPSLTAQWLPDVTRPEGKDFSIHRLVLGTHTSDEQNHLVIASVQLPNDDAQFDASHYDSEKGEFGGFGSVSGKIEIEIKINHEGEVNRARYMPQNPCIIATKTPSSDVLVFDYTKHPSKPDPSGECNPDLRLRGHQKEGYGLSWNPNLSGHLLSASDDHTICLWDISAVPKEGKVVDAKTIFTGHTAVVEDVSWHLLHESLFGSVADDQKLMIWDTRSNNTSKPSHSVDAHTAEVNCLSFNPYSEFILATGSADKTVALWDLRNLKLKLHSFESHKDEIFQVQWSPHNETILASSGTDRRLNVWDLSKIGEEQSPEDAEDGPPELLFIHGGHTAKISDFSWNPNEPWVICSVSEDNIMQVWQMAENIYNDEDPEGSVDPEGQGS

Sequence of RBBP4 Glu126Ala/Asn128Ala/Glu179Ala (Q09028 whole entry E126A/N128A/E179A): as the sequence (Q09028 whole entry) above, with E126A, N128A, E179A counted along it
Sequence of RBBP4 Glu231Ala (Q09028 whole entry E231A): as the sequence (Q09028 whole entry) above, with E231A counted along it

Regarding KRRKLKNKRRRS [AEBP2_(379–390) peptide (RRK-rich motif, residues Lys379–Ser390)], the results for the Kd (in the assay with RBBP4 Glu231Ala; in assay [1]) were 38.5 µM and 56.8 µM, respectively.
Consider KARALKNKRRRS [AEBP2_(379–390) peptide with mutations Arg380Ala/Lys382Ala], for which binding in assay [2] was put at a Kd of 178 µM.

Broadly, the Kd is the constant that tells how readily two partners part at equilibrium. The low end stands for a tighter complex, the high end for a looser complex.
